Results: PMC7111318

Target: Echo 6 virus full particle (strain SJZ-366) (Echovirus 6 strain SJZ-366)
Assay: SPR

Substance “Human CD55 soluble protein (extracellular domain) (from UniProt P08174-1 35-285) (domain or fragment)” has a Kd of 375 nM.
Work on “Human FcRn soluble protein (FCGRT extracellular domain + β2 m) (from UniProt P61769 21-119) (complex)” yielded a Kd of 242 nM.
